Reference: article doi:10.1101/2025.04.28.650977
pIC50: −log10 of the molar value.

Columns and labels:
Test in all cases: SPR
[1] = biological target: recombinant CIS in complex with Elongins BC (GST removed) (human) (UniProt Q9NSE2)
[2] = biological target: recombinant SOCS2 in complex with Elongins BC (UniProt O14508)
[3] = biological target: recombinant SOCS1 in complex with Elongins BC (UniProt O15524)

pIC50 [1]: 6.70
pIC50 [2]: 5.78
pIC50 [3]: 7.30
Substance: ARAP2-pY415 peptide (competitor phosphopeptide)
